According to patent publication US11156615B2 (priority 2015, dated 2021):

What was measured:
[1] = Thermostability: mid-point thermal denaturation temperature (Tm) from temperature-dependent fluorescence (Roche LightCycler); format: physicochemical; conditions: apo-protein
Description: Protein (un)folding is monitored by binding of SYPRO to the unfolded state as a function of temperature. Fluorescence intensity increases upon binding of SYPRO by the unfolded state.
Panels A-C: ttGBP182C.2.0-Imm0; Panels D-F: ttGBP182C.2.0-Imm1 (see FIG. 13). (A) Solution (Tm=347.6K). (B) Immobilized on Nickel-nitriloacetic acid (Ni-NTA) beads (Tm=346.7K). (C) Reconstituted, desiccated Ni-NTA beads (Tm=347.6K). (D) Fluorescence response of ttGGBP5.2 Imm1 immobilized on NHS-functionalized agarose beads. Data was collected on a Roche LightCycler real-time PCS instrument, recording emission intensities at 488 nm and 510 nm as a function of temperature in a 384-well microtiter plate. […] Temperature melts of twelve different wells. Apo protein thermostability as reported by the denaturation mid-point temperature is 349 K, similar to the protein free in solution. […] (F) Representative Langmuir ligand-binding curve extracted from the three-dimensional data.
Temperatures were advanced in 1K steps. […] Under these experimental photobleaching was not observed.

[2] = Glucose binding: isothermal fluorescence titrations, ratiometric (appKd) and monochromatic (trueKd) fits; design: key to Glucose appKd / Glucose trueKd: nb, no bonding; conditions: room temperature
Description: 2 For a single glucose-binding site, the fractional saturation is given by
[formula] where ^apoIλ2 and ^satIλ2 are the emission intensities of the monochromatic signal at wavelength λ2 of the ligand-free and ligand-bound protein, respectively.

[3] = Galactose binding: isothermal fluorescence titrations of conjugates; design: key to Galactose trueKd: nb, no bonding; conditions: for Galactose trueKd: Badan conjugate; for Galactose trueKd / Kd: monochromatic titration curves, room temperature; for S, selectivity = trueKd(galactose)/trueKd(glucose) / Kd: Acrylodan conjugate; for S, selectivity = trueKd(galactose)/trueKd(glucose): S > 1, selective for glucose; for Kd: read-out: Galactose trueKd
[4] = read-out: Glucose appKd, Acrylodan conjugate, dichromatic ratiometry
[5] = read-out: Glucose trueKd, Acrylodan conjugate, monochromatic titration curves

| Molecule | apoTm ([1]; Badan conjugate) [K] | Glucose appKd ([2]; Badan conjugate, dichromatic ratiometry) | Glucose trueKd ([2]; Badan conjugate, monochromatic titration curves) | Galactose trueKd [3] | apoTm ([1]; Acrylodan conjugate) [K] | Kd [2, 4] [mM] | Kd [2, 5] [mM] | S, selectivity = trueKd(galactose)/trueKd(glucose) [3] | Kd [3] [mM] | Kd ([2]; read-out: Glucose appKd, Badan conjugate, dichromatic ratiometry) [mM] | Kd ([2]; read-out: Glucose trueKd, Badan conjugate, monochromatic titration curves) [mM] |
| --- | --- | --- | --- | --- | --- | --- | --- | --- | --- | --- | --- |
| ttGGBP17C.19: affinity-tuning mutant, 17C background, SEQ ID NO: 77 (protein, ttGGBP17C.19 (affinity-tuning mutant, 17C background (Table 6) with signal peptide replaced with M and GGSHHHHHH at C-terminus)) MKQLNIGVAIYKFDDTCMTGVRNAMTAEAQGKAKLNMVDSQNSQPTQNDQVDLFITKKMNALAINPVDRTAAGTIIDKAKQANIPVVFFNREPLPEDMKKWDKVYYVGAKAEQSGILQGQIMADYWKAHPEADKNHDGVMQYVMLMGQPGHQDAILRTQYSIQTVKDAGIKVQELAKDYANWDRVTAHDKMAAWLSSFGDKIEAVFANNDDMALGAIEALKSAGYFTGNKYIPVVGVDATAPGIQAIKDGTLLGTVLDDAKNQAKATFNIAYELAQGITPTKDNIGYDITDGKYVWIPYKKITKDNISDAEQGGSHHHHHH | 344 | nb^e | nb^e | nb^e | – | – | – | – | – | – | – |
| ttGGBP182C.2.3: affinity-tuning mutant, 182C background, SEQ ID NO: 90 (protein, ttGGBP182C.2.3 (affinity-tuning mutant, 182C background (Table 6) with signal peptide replaced with M and GGSHHHHHH at C-terminus)) MKQLNIGVAIYKFDDTFMTGVRNAMTAEAQGKAKLNMVDSQNSQPTQNDQVDLFITKKMNALAINPVDRTAAGTIIDKAKQANIPVVFFNKEPLPEDMKKWDKVYYVGAKAEQSGILQGQIMADYWKAHPEADKNHDGVMQYVMLMGEPGHQDNILRTQYSIQTVKDAGIKVQELAKDYANCDRVTAHDKMAAWLSSFGDKIEAVFANNDDMALGAIEALKSAGYFTGNKYIPVVGVDATAPGIQAIKDGTLLGTVLNDAKNQAKATFNIAYELAQGITPTKDNIGYDITDGKYVWIPYKKITKDNISDAEQGGSHHHHHH | – | – | – | – | 346 | 16.3 | 19 | 10.9 | – | – | – |
| ttGGBP182C.2.1: affinity-tuning mutant, 182C background, SEQ ID NO: 89 (protein, ttGGBP182C.2.1 (affinity-tuning mutant, 182C background (Table 6) with signal peptide replaced with M and GGSHHHHHH at C-terminus)) MKQLNIGVAIYKFDDTFMTGVRNAMTAEAQGKAKLNMVDSQNSQPTQNDQVDLFITKKMNALAINPVDRTAAGTIIDKAKQANIPVVFFNKEPLPEDMKKWDKVYYVGAKAEQSGILQGQIMADYWKAHPEADKNHDGVMQYVMLMGEPGHQDSILRTQYSIQTVKDAGIKVQELAKDYANCDRVTAHDKMAAWLSSFGDKIEAVFANNDDMALGAIEALKSAGYFTGNKYIPVVGVDATAPGIQAIKDGTLLGTVLNDAKNQAKATFNIAYELAQGITPTKDNIGYDITDGKYVWIPYKKITKDNISDAEQGGSHHHHHH | – | – | – | – | 328 | 3 | 4.1 | 3.2 | 13.1 | – | – |
| ttGGBP182C.2.0: affinity-tuning mutant, 182C background (R91K, Q148E), SEQ ID NO: 88 and 298 (protein, ttGGBP182C.2.0 (affinity-tuning mutant, 182C background (Table 6) with signal peptide replaced with M and GGSHHHHHH at C-terminus)) MKQLNIGVAIYKFDDTFMTGVRNAMTAEAQGKAKLNMVDSQNSQPTQNDQVDLFITKKMNALAINPVDRTAAGTIIDKAKQANIPVVFFNKEPLPEDMKKWDKVYYVGAKAEQSGILQGQIMADYWKAHPEADKNHDGVMQYVMLMGEPGHQDAILRTQYSIQTVKDAGIKVQELAKDYANCDRVTAHDKMAAWLSSFGDKIEAVFANNDDMALGAIEALKSAGYFTGNKYIPVVGVDATAPGIQAIKDGTLLGTVLNDAKNQAKATFNIAYELAQGITPTKDNIGYDITDGKYVWIPYKKITKDNISDAEQGGSHHHHHH | – | – | – | – | 346 | 4.5 | 6 | 3.1 | 18.5 | – | – |
| ttGGBP17C.21: affinity-tuning mutant, 17C background, SEQ ID NO: 79 (protein, ttGGBP17C.21 (affinity-tuning mutant, 17C background (Table 6) with signal peptide replaced with M and GGSHHHHHH at C-terminus)) MKQLNIGVAIYKFDDTCMTGVRNAMTAEAQGKAKLNMVDSQNSQPTQNDQVDLFITKKMNALAINPVDRTAAGTIIDKAKQANIPVVFFNREPLPEDMKKWDKVYYVGAKAEQSGILQGQIMADYWKAHPEADKNHDGVMQYVMLMGQPGHQDAILRTQYSIQTVKDAGIKVQELAKDYANWDRVTAHDKMAAWLSSFGDKIEAVFANNDDMALGAIEALKSAGYFTGNKYIPVVGVDATAPGIQAIKDGTLLGTVLADAKNQAKATFNIAYELAQGITPTKDNIGYDITDGKYVWIPYKKITKDNISDAEQGGSHHHHHH | 345 | – | – | nb | – | – | – | – | – | 61 | 69 |
| ttGGBP182C.7: affinity-tuning mutant, 182C background, SEQ ID NO: 101 (protein, ttGGBP182C.7 (affinity-tuning mutant, 182C background (Table 6) with signal peptide replaced with M and GGSHHHHHH at C-terminus)) MKQLNIGVAIYKFDDTFMTGVRNAMTAEAQGKAKLNMVDSQNSQPTQNDQVDLFITKKMNALAINPVDRTAAGTIIDKAKQANIPVVFFNKEPLPEDMKKWDKVYYVGAKAEQSGILQGQIMADYWKAHPEADKNHDGVMQYVMLMGSPGHQDAILRTQYSIQTVKDAGIKVQELAKDYANCDRVTAHDKMAAWLSSFGDKIEAVFANNDDMALGAIEALKSAGYFTGNKYIPVVGVDATAPGIQAIKDGTLLGTVLNDAKNQAKATFNIAYELAQGITPTKDNIGYDITDGKYVWIPYKKITKDNISDAEQGGSHHHHHH | – | – | – | – | 346 | – | – | – | 1.1 | – | – |
| ttGGBP182C.2.5: affinity-tuning mutant, 182C background, SEQ ID NO: 92 (protein, ttGGBP182C.2.5 (affinity-tuning mutant, 182C background (Table 6) with signal peptide replaced with M and GGSHHHHHH at C-terminus)) MKQLNIGVAIYKFDDTFMTGVRNAMTAEAQGKAKLNMVDSQNSQPTQNDQVDLFITKKMNALAINPVDRTAAGTIIDKAKQANIPVVFFNKEPLPEDMKKWDKVYYVGAKAEQSGILQGQIMADYWKAHPEADKNHDGVMQYVMLMGEPGQQDAILRTQYSIQTVKDAGIKVQELAKDYANCDRVTAHDKMAAWLSSFGDKIEAVFANNDDMALGAIEALKSAGYFTGNKYIPVVGVDATAPGIQAIKDGTLLGTVLNDAKNQAKATFNIAYELAQGITPTKDNIGYDITDGKYVWIPYKKITKDNISDAEQGGSHHHHHH | – | – | – | – | 346 | 10.8 | 13 | 1.6 | 20.3 | – | – |
